Measured values taken from US9913914B2, “Cell transport” (priority 2013, dated 2018).

Columns and labels:
Format in all cases: cell-based, Dictyostelium discoideum
[1] = test system: PTEN; assay: Inositol phospholipid levels in starving Dictyostelium cells (solvent extraction, thin layer chromatography); conditions: 10 micromolar, 1 hour
Procedure: FIG. 9. The levels of the 4 inositol phospholipids (PI, PIP, PIP2 and PIP3) in wild-type Dictyostelium cells undergoing starvation were measured by solvent extraction of cell cultures and analysis using thin layer chromatography. The effect of Cupid B-PTEN peptide treatment (10 micromolar, 1 hour) was calculated as a percentage change in the basal (untreated) levels.
The PTEN protein has a phospholipase enzymatic activity that functions to remove phosphate groups from inositol-based lipids and as such is involved with maintaining the balance between varieties of inositol phospholipids present at the cell surface. In wild-type cells undergoing starvation the inositol phospholipids with 3 and 4 phosphate groups (PIP2 and PIP3) are kept low, largely due to the action of PTEN.
We determined the effect of Cupid B-PTEN peptide on the inositol phospholipid levels in Dictyostelium cultures. Cupid B-PTEN peptide treated cells (10 micromolar, 1 hour) alters the basal levels of inositol phospholipids in Dictyostelium cells.

[2] = test system: PTEN; assay: Protein phosphorylation response to cyclic AMP in starving Dictyostelium cultures (antibody detection on SDS gels); conditions: pretreated 1 hour, 10 micromolar
Excerpt: FIG. 10. In starving Dictyostelium cultures, several proteins undergo rapid phosphorylation/dephosphorylation events in response to an applied dose of cyclic AMP. The strength of this response is limited by PTEN enzyme activity. This response is visualised with antibody detection of these phosphoproteins on SDS gels prepared from extracted cultures at the time points indicated after the cAMP dose.
In starving Dictyostelium cultures, several proteins undergo rapid phosphorylation/dephosphorylation events in response to an applied dose of cyclic AMP. The strength of this initial phosphorylation response is limited by PTEN enzyme activity and is associated with changes in PIP2 and PIP3 inositol phospholipid levels.

[3] = test system: Dictyostelium cells (PTEN-null phenotype); assay: Streaming/aggregation of starved wild-type Dictyostelium cultures compared with PTEN-null mutant; conditions: 10 micromolar dose
Procedure: FIG. 8. Cupid can transport large molecule cargo into the cell. Starved Dictyostelium cultures were plated into petri dishes in starvation buffer and visualised after 10 hours. In untreated wild-type (WT) cultures (A), cells stream together into aggregation centres, co-ordinated by cell to cell signaling.
In Dictyostelium, a genetic mutant in which the PTEN gene is absent causes marked changes in phenotype.

B1: Cupid B-PTEN peptide: SEQ ID NO: 12; His-tagged Cupid B fused to 167 amino acid C2 region (186-352) of human PTEN (protein, listed as Homo sapiens)
chain: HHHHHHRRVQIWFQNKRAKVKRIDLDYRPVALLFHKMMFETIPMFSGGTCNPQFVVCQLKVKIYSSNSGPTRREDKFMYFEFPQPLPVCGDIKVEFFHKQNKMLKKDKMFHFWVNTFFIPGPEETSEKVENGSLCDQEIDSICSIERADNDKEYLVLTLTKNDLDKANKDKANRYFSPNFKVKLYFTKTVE
modifications: His tag
notes: His-tagged Cupid B fused to 167 amino acid C2 region (186-352) of human PTEN
B1 was tested, and the “level of PIP2 relative to untreated basal levels” value [1] was “+75%”, the “level of PIP3 relative to untreated basal levels” value [1] was “+150%” and the “initial phosphorylation response to cyclic AMP versus untreated cultures” value [2] was “much stronger initial phosphorylation response”. The “aggregation behaviour of wild-type cells during starvation” value [3] was “exhibit the same distinctive behaviour as the PTEN-Null strain”.
